This is an account of results in a protein production outcome set (Wang et al. 2014).

The series in a line: label from the status in PepcDB records.
With “MLFNRHNKTTDSLQQTIAEQSRLLEAIDRSMAVIEFDLQGNVLRANANFLQTLGYREDQVTGQPHRLFCTPEYVRSSDYQQLWNRLRSGQFESGTFERVASNGQSLWLEASYNPIRDASGAVYKVVKYALDVTARVQEEVEARNKLDAIDRAMAVIEFNLDGSIIGANSNFLSRMGYSLAEIKGKHHRMFCKPELINSSAYQDFWNRLNRGEFFNGQFERIDRHGRTLWLEANYNPVYDASGRLCKVVKYAADVTQQVEKHEQDAQSASQAYHISVQTRKVAEQGTGVIQQAASEMRQIAENIEGSSSLIARLGERSEQITAIVNTIRAIADQTNLLALNAAIEAARAGDQGRGFAVVADEVRQLAARTSGSTAEISSMIDMIQNETQQAIKSMDGTRERAAKGVQLADQAGTVILQIRDGASEAVEAVSMFANERGAP”, the protein production entry is “failed”. For “MKPLKEYLLIPTQMRVFETQTQAIETSLSVNAQTSESSEAFTVKKDPHEIKVTGKKSGESELVYDLAGFPIKKTKVHVLPDLKVIPGGQSIGVKLHSVGVLVGFHQINTSEGKKSPGETAGIEAGDIIIEMNGQKIEKMNDVAPFIQKAGKTGESLDLLIKRDKQKIKTKLIPEKDEGEGKYRIGLYIRDSAAGIGTMTFYEPKTKKYGALGHVISDMDTKKPIVVENGEIVKSTVTSIEKGTGGNPGEKLARFSSERKTIGDINRNSPFGIFGTLHQPIQNNISDQALPVAFSTEVKKGPAEILTVIDDDKVEKFDIEIVSTTPQKFPATKGMVLKITDPRLLKETGGIVQGMSGSPIIQNGKVIGAVTHVFVNDPTSGYGVHIEWMLSEAGIDIYGKEKASLEHHHHHH” the value was “not failed”; for “MFARFLAQLDFVLTCDRLKTALRTTRLHDGSRLENSAEHSWHLALLALTLAEYAPTGTDVGRVVRLLLMHDLVEIGAGDLSFDAPAEAQAAQQEAEARAAAELFGLLPTDQAAEFLGLWQEFEARQTTEVRFARALDALQPMLLTWGPGAQGCAASHPELTHLRVLGLKEKHLREFPELWAAAQGVMAQAQARGVLQPLEHHHHHH”, “failed”. For “MALAMNRSITAITVTHNSAHTVRGALARLPPGVEIVCVDNASTDDLSTALSDLAVHRIDNPVNLGFGRACNIGAAAATGEYLLFINPDVRLGTDAVDALLQAAERYPNCGVFVPRTNTVDGRLWFREESEIDRLSGVSLPTRIRQVWGDCCVRFVNGGVFMIKRTLFLDTGGFDEDIFLYFEDDDLSYRLLQRDEPMILVSGAHAVHDIGTSVAQSTRSRIFRYRSKMRSEIHLRKKYGIAYSPFVDILRYSTKIGFYCLTLNRNRLINSLGRLIGIFDSILDRSRANRNGGYVALEHHHHHH” the value was “not failed”. As for “MENTVQEARRYLSNAREILSEKAKKNGIYYNDIKYVKLAGRAAYSGVLVALDGLLGKKDTRKSVEWYQEKLGKVDKKALTAFNSAYKILHLSMAYDGIELVSVSKDGLKQAEALINWVETRTAAA”, the entry is “failed”; as for “MFRPENVQALAGLALTLGLCWLVSENRKRFPWGLAIGAVVIQVLLVLVLFGLPQAQQMLRGVNGAVEGLAASTQAGTAFVFGFLAGGDQPYPVSNPGAGFIFAFRVLPVILVVCALSALLWHWKILKWLAQGFGFVFQKTLGLRGPPALATAATIFMGQVEGPIFIRAYLDKLSRSELFMLIAVGMACVSGSTMVAYATILADVLPNAAAHVLTASIISAPAGVLLARIIVPSDPMEKSADLDLSTEDKTYGSSIDAVMKGTTDGLQIALNVGATLIVFVALATMVDKVLGAFPPVGGEPLSIARGLGVVFAPLAWSMGIPWKEAGTAGGLLGVKLILTEFTAFIQLSKVGEALLDERTRMIMTYALCGFANIGSVGMNVAGFSVLVPQRRQEVLGLVWKAMMAGFLATCLTASLVGLMPRSLFGL”, “failed”; as for “MDTSNLDTPMRMAAFDRVRGLNEVHDHLTATELQPGFLFRGERIPLVNPQRGIFKPHQMRFLLSIKTVFPKPGGKVWYDDQRDIQRQIFYGDEAIDYAFMGKNPDAADNRWLKEAYENQIPVVYFLGIAPGRYQALLPTFISGWDGQALKARITFGPNPEKLAPPSDSAERRYALRTVKQRLHQATFREAVISAYDGRCAFSGLPEPLLLDAAHIIADKDERLGHPVVTNGIPLSKIHHAAFDAHLIGIDPDFRLHVSDRLLGQNDGPMLEALKQLNGRNIRLPGRAKDHPDRDRLAMRFERYKSVA”, “failed”. For the sequence “MSDHPFSIQANLYLQLRHFIRLGMSKAEAIKLITYNNAKILGIEDKLGSLEKGKWASLVVWNGDPFNLENYPTHVFAEGELIHEANLLEHHHHHH”, the protein production result is reported as “failed”. For “FAFVYEAQDVGSGREYALKRLLSNEEEKNRAIIQEVCFMKKLSGHPNIVQFCSAASIGKEESDTGQAEFLLLTELCKGQLVEFLKKMESRGPLSCDTVLKIFYQTCRAVQHMHRQKPPIIHRDLKVENLLLSNQGTIKLCDFGSATTISHYPDYSWSAQRRALVEEEITRNTTPMYRTPEIIDLYSNFPIGEKQDIWALGCILYLLCFRQHPFEDGAKLRIVNGKYSIPPHDTQYTVFHSLIRAMLQVNPEERLSIAEVVHQLQEIAAARNVNPKSPITELLEQNGGYGSAT”, the protein production result is “failed”. For “MAFQVKIHQIRAFVEVARQGSIRGASRMLNMSQPALSKSIQELEEGLAAQLFFRRSKGVTLTDAGESFYQHASLILEELRAAQEDIRQRQGQLAGQINIGMGASISRSLMPAVISRFHQQHPQVKVRIMEGQLVSMINELRQGELDFTINTYYQGPYDHEFTFEKLLEKQFAIFCRPGHPAIGARSIKQLLDYSWTMPTPHGSYYKQLSELLDDQAQTPQVGVVCETFSACISLVAKSDFLSKLPEEMGCDPLHGQGLVMLPVSEILPKAAYYLIQRRDSRQTPLTASLITQFRRECGYLQS” the value was “failed”; for “MSDVISESALKSAKTEKNQKIYWDELKEGEQFSYGHYQVSEHENIDFAKRYDPMEFHVDPEKAKLSPIGALCASGIHTLGIMQRLTFDNIYTNWHIVAGRELRKCQFRLPVFVDDCLTVNMTIAKLSVDTRSDRGNAELTFDVKNAKGKTVLEVEGEIVLQRFPSI”, “failed”; for “MTPVLSLDMEDPIRFIDENGSFEVVKVGHNLAIHGKKIFDELAKRNLKIILDLKFCDIPSTVERSIKSWDHPAIIGFTVHSCAGYESVERALSATDKHVFVVVKLTSMEGSLEDYMDRIEKLNKLGCDFVLPGPWAKALREKIKGKILVPGIRMEVKADDQKDVVTLEEMKGIANFAVLGREIYLSENPREKIKRIKEMRL”, “not failed”. For “LNHVAEELCAATNESEVFSIITRSASHIISAQRISYCVPNYKDKCFEIRSVFSENEVMKSATVDMENSALQFVLQSGSPQFFENLAVTNFTDHLILSKNGLCSGWSVPVRVKGEIVGLLNAASNVKINERAQQLGVIKMLSGIMGVTLSRVNLQEQLEHQ” the value was “failed”; for “MTYEIVIAGFGGQGVLSMGKILAYSGLMEDKEVSWMPSYGPEQRGGTSNVTVIVSDEQVSSPVLNEYDIVIVLNQPSLDKFEARVKKGGILVYDPDSIVLKNKRDDIQIYEVDATQESLRMGNQK”, “failed”. For “MQRVAQWAADVPEETLNLLELSQVAGVSLRQLQSAFKAFTGMAPSQWLRLRRLNSAHRELLSRGPTETTVAEVAMHWSFWHLGRFSSSYRALFKELPSQTLKRSAVARR” the value was “failed”; for “MNKPTLGIDLDTTLNTLDREWVKRYNEIYKDKLLPSDIKGWDIENYVKPECGKKIYDILKEPHFFRNLGVQPFAETALEELTSIFNIYIVSATHYKVCEDKGNWIKEKFPFISYQNIIFCHNKGLVHLDILIDDNPLNLENFKGNKILFDAHHNKSENRFVRARDWYEAKALCESLKDFL”, “failed”; for “MSSLNIKQGSDAHFPDYPLASPSNNEIDLLNLISVLWRAKKTVMAVVFAFACAGLLISFILPQKWTSAAVVTPPEPVQWQELEKTFTKLRVLDLDIKIDRTEAFNLFIKKFQSVSLLEEYLRSSPYVMDQLKEAKIDELDLHRAIVALSEKMKAVDDNASKKKDEPSLYTSWTLSFTAPTSEEAQTVLSGYIDYISALVVKESIENVRNKLEIKTQFEKEKLAQDRIKMKNQLDANIQRLNYSLDIANAAGIKKPVYSNGQAVKDDPDFSISLGADGIERKLEIEKAVTDVAELNGELRNRQYLVEQLTKANINDVNFTPFKYQLSPSLPVKKDGPGKAIIVILSALIGGMVACGSVLLRYAMASRKQDAMMADHLV”, “not failed”. For the sequence “FEPRSLITSDKGFVTMTLESLEEIQDVSCAWKELNRKLSSNAVSQITRMCLLKGNMGVCFDVPTTESERLQAEWHDSDWILSVPA”, the protein production entry is recorded as “not failed”.
